Assay results published in patent US20190307687A1.
Square brackets hold non-standard residues; d marks the D form.

Target: αvβ3 integrin on TNF-α-treated bovine aortic endothelial cells (BAEC) (bovine) (UniProt P80746)
Assay: attachment under flow in a microfluidic device coated with TNF-α-treated BAEC cells; reference RGD-targeted nanospheres

fold higher attachment compared to RGD-targeted nanospheres (after 5 min): 9.5 fold
fold higher attachment compared to RGD-targeted nanospheres (after 20 min): 2.9 fold
B1: RGD-NC nanoparticle (integrin-targeted nanochain of four iron oxide nanospheres carrying c(RGDfC) peptides on PEG) (peptide)
peptide: cyclo(RGD[dF]C)
modifications: not fully specified (residue 5); printed as cyclo (Arg-Gly-Asp-D-Phe-Cys); also: nanochain also tagged with VivoTag 680
